Assay results as given in paper PMC548802.

Columns and labels:
[1] = target: tetranectin with substitution of threonine 149 with tyrosine (TN^T149Y) (human) (UniProt P05452); test: ELISA
[2] = target: tetranectin in which lysine 148 was replaced with alanine (TN^K148A) (human) (UniProt P05452); test: ELISA

| ELISA specific binding (OD 450, binding to BSA subtracted) [1] [OD 450] | ELISA specific binding (OD 450, binding to BSA subtracted) [2] [OD 450] | Substance |
| --- | --- | --- |
| 1.73 | – | human plasminogen (natural protein) |
| 0.43 | – | recombinant human angiostatin containing kringle domains 1-3 (AST^K1-3) (domain or fragment) |
| 1.83 | 0.06 | recombinant human angiostatin containing kringle domains 1-4 (AST^K1-4) (domain or fragment) |
